pIC50: −log10 of the molar value. Where two headings read alike, the source gives them in different places. No end group written: not given here.
Tests used:
DRB1*0802 (DR8w2) = target: T1, DRB1*0802 (DR8w2) (Homo sapiens, UniProt P01903+P01911, A100R/A103L/A169T/F76Y/H45Y/I96F/K41T/L162R/M171V/P40S/Q125H/Q178H/Q39Y/Q99D/R218S/R42G/S66Y/V115G/W38E); assay: biochemical; format: binding
T1 construct: endogenous in cells; host or cells: OLL

DRB1*0701 (DR7) = target: T2, DRB1*0701 (DR7) (Homo sapiens, UniProt P01903+P01911, A100R/A102G/A103Q/D57E/D86V/E43K/F76Y/K127E/L162R/M171V/P40G/Q125H/Q99D/R33Q/R42Y/R54Q/S133A/S66F/T210M/V115G/Y107V/Y59L/Y89S); assay: biochemical; format: binding
T2 construct: endogenous in cells; host or cells: Pitout

DRB1*1201 (DR5w12) = target: T3, DRB1*1201 (DR5w12) (Homo sapiens, UniProt P01903+P01911, A100R/A169T/D57E/D86V/F55L/H45Y/K41T/L162R/M171V/P40S/Q125H/Q178H/Q39Y/Q99D/R42G/S66L/T262R/V114A/V67L/W38E/Y59H/Y61H/Y89S); assay: HLA class II peptide binding assay; conditions: Table XIXb; DR5w12
T3 construct: endogenous in cells; host or cells: Herluf

DRB1*0405 (DR4w15) = target: T4, DRB1*0405 (DR4w15) (Homo sapiens, UniProt P01903+P01911, A100R/A169T/D86S/F76Y/I96L/K127E/L162R/M171V/N62H/P40V/Q125Y/R42H/S133A/S149N/S66Y/V115G/V209L/W38E); assay: HLA class II peptide binding assay; conditions: for DR4w15 binding data: Table XIXb; for DR4w15 binding information: unit not given
T4 construct: endogenous in cells; host or cells: KT3

DRB1*1101 (DR5w11) = target: T5, DRB1*1101 (DR5w11) (Homo sapiens, UniProt P01903+P01911, A100R/A169T/A87E/I96F/K41T/L162R/M171V/P40S/Q125H/Q178H/Q39Y/Q99D/R42S/S66Y/T262R/V115G/W38E); assay: biochemical; format: binding
T5 construct: endogenous in cells; host or cells: Sweig
T5 sequence (P01903 26-254, other chains not shown): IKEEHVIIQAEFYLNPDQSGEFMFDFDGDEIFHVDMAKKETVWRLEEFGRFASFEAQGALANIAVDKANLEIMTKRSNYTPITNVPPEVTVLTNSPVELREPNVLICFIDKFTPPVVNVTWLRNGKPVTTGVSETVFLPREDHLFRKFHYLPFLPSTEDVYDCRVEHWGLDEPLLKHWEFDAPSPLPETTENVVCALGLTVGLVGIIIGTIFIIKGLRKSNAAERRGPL

DRB1*0901 (DR9) = target: T6, DRB1*0901 (DR9) (Homo sapiens, UniProt P01903+P01911, A100R/A103E/D57H/D86V/F55Y/F60I/F76Y/I96F/K127E/L162R/M171V/P40D/Q125H/Q99R/R33Q/R42F/S133A/S66N/T210M/V115G/W38K/Y107V/Y59G/Y89S); assay: biochemical; format: binding
T6 construct: endogenous in cells; host or cells: HID

DRB1*0101 (DR1) = target: T7, DRB1*0101 (DR1) (Homo sapiens, UniProt P01903+P01911, A100R/D57E/F55L/F60I/F76Y/I96L/L162R/M171V/P40L/Q125E/R42F/V115G/Y59C); assay: HLA class II peptide binding assay; conditions: for DR1 binding data: Table XIXb, Malaria Super Motif Peptides With Binding Data; for DR1 binding information: unit not given
T7 construct: endogenous in cells; host or cells: LG2
T7 sequence (P01903 26-254 partner, other chains not shown): as the sequence (P01903 26-254, other chains not shown) above

DRB5*0101 (DR2w2β2) = target: T8, DRB5*0101 (DR2w2β2) (Homo sapiens, UniProt P01903+Q30154); format: binding
T8 construct: expressed in transfected cells; host or cells: L416.3 (fibroblasts) or GM3107

DRB1*1501 (DR2w2β1) = target: T9, DRB1*1501 (DR2w2β1) (Homo sapiens, UniProt P01903+P01911); assay: HLA class II peptide binding assay; conditions: for DR2w2β1 binding data: Table XIXb; for DR2w2β1 binding information: unit not given
T9 construct: expressed in transfected cells; host or cells: L466.1 (fibroblasts)

DRB1*0401 (DR4w4) = target: T10, DRB1*0401 (DR4w4) (Homo sapiens, UniProt P01903+P01911, A100K/A169T/F76Y/I96L/K127E/L162R/M171V/N62H/P40V/Q125Y/R42H/S133A/S149N/S66Y/V115G/V209L/W38E); assay: HLA class II peptide binding assay; conditions: for DR4w4 binding data: Table XIXb; for DR4w4 binding information: unit not given
T10 construct: endogenous in cells; host or cells: Preiss
T10 sequence (P01903 26-254 partner, other chains not shown): as the sequence (P01903 26-254, other chains not shown) above

DRB1*0301 (DR3) = target: T11, DRB1*0301 (DR3) (Homo sapiens, UniProt P01903+P01911, A100K/A102G/A103R/A169T/F55Y/I96L/K41T/L162R/M171V/P40S/Q125H/Q178H/Q39Y/R42S/S66N/T106N/T262R/W38E/Y61H); assay: HLA class II peptide binding assay (pH 4.5); conditions: for DR3 binding data: Table XIXb; for Alleles bound (DR3): binding to DR3, Table XXXIV; for DR3 binding information: unit not given
T11 construct: endogenous in cells; host or cells: MAT

DRB1*1302 (DR6w19) = target: T12, DRB1*1302 (DR6w19) (Homo sapiens, UniProt P01903+P01911, A100E/A169T/K41T/L162R/M171V/P40S/Q125H/Q178H/Q39Y/Q99D/R42S/S66N/T262R/V115G/W38E/Y61H); assay: HLA class II peptide binding assay; conditions: for DR6w19 binding data: Table XIXb; for DR6w19 binding information: unit not given
T12 construct: endogenous in cells; host or cells: H0301
T12 sequence (P01903 26-254, other chains not shown): as above

DRB4*0101 (DRw53) = target: T13, DRB4*0101 (DRw53) (Homo sapiens, UniProt P01903+P13762, G164S); assay: HLA class II peptide binding assay (pH 5.0); conditions: for DRw53 binding data: Table XIXb
T13 construct: expressed in transfected cells; host or cells: L257.6 (fibroblasts)

HLA-A*1101 = HLA-A*1101 (Homo sapiens, UniProt P04439, A114D/D185E/E176A/F33Y/L180Q/S129P/T187R); assay: HLA class I peptide binding assay; conditions: Table XVII, malaria A11 motif peptides; binding value unit not given
HLA-A*0301 = target: T14, HLA-A*0301 (Homo sapiens, UniProt P04439); assay: HLA class I peptide binding assay; conditions: Malaria A3 motif peptides, Table XVI; binding value to HLA-A*0301, unit not given
T14 construct: endogenous in cells; host or cells: GM3107

[1] = DR3a motif peptides, exemplary 15-mer containing the core sequence

Compound	DR8w2 binding data (DRB1*0802 (DR8w2))	DR7 binding data (DRB1*0701 (DR7))	DR5w12 binding data (DRB1*1201 (DR5w12))	DR4w15 binding data (DRB1*0405 (DR4w15))	DR5w11 binding data (DRB1*1101 (DR5w11))	DR9 binding data (DRB1*0901 (DR9))	DR1 binding data (DRB1*0101 (DR1); DR1)	DR2w2β2 binding data (DRB5*0101 (DR2w2β2))	DR2w2β1 binding data (DRB1*1501 (DR2w2β1))	DR4w4 binding data (DRB1*0401 (DR4w4))	DR3 binding data (DRB1*0301 (DR3))	DR6w19 binding data (DRB1*1302 (DR6w19))	further results
LGNVSTVLL	0.0012	0.4300	0.0001	0.0360	0.0005	0.5300	0.0430	0.0013	0.0240	0.0065	0.0059		
CC(C)C[C@H](NC(=O)[C@H](CC(N)=O)NC(=O)[C@H](CS)NC(=O)[C@@H](N)CCCCN)C(=O)N[C@@H](Cc1ccc(O)cc1)C(=O)N[C@@H](C)C(=O)N[C@@H](CC(=O)O)C(=O)N[C@@H](CO)C(=O)N[C@@H](C)C(=O)N[C@@H](Cc1c[nH]c2ccccc12)C(=O)N[C@@H](CCC(=O)O)C(=O)N[C@@H](CC(N)=O)C(=O)N[C@H](C(=O)N[C@@H](CCCCN)C(=O)N[C@@H](CC(N)=O)C(=O)O)C(C)C [Peptide 35.0172]													pIC50 (DRB1*0802 (DR8w2)): < 4.70; pIC50 (DRB1*0701 (DR7)): < 4.70; pIC50 (DRB1*1101 (DR5w11)): < 4.70; pIC50 (DRB1*0901 (DR9)): < 4.70; pIC50 (DRB1*0101 (DR1)): 4.63; pIC50 (DRB1*1302 (DR6w19)): 4.96; pIC50 (DRB1*1501 (DR2w2β1)): 4.74; pIC50 (DRB1*0301 (DR3)): 6.07; Alleles bound (DR3) (DRB1*0301 (DR3)): DR3
VHDLISDMI	0.0096	0.0100	0.0001	0.0075	0.0037	0.0430	0.0130	0.0061		0.0310	0.0100	0.0004	DRw53 binding data (DRB4*0101 (DRw53)): 0.0940
LALFFIIFN	-0.0007	0.0056	0.0002	0.0100	-0.0005	-0.0018	0.0006	-0.0021	0.0180	0.0047	-0.0043	-0.0002	
VCNDEVDLY													DR8w2 binding information (DRB1*0802 (DR8w2)): -0.0003; DRw53 binding information (DRB4*0101 (DRw53); DR3a motif peptides, unit not given, exemplary 15-mer containing the core sequence): -0.0010; DR7 binding information (DRB1*0701 (DR7)): -0.0003; DR4w15 binding information (DRB1*0405 (DR4w15); [1]): -0.0004; DR5w11 binding information (DRB1*1101 (DR5w11)): 0.0001; DR1 binding information (DRB1*0101 (DR1); [1]): 0.0003; DR2w2β2 binding information (DRB5*0101 (DR2w2β2)): 0.1300; DR2w2β1 binding information (DRB1*1501 (DR2w2β1); [1]): -0.0006; DR4w4 binding information (DRB1*0401 (DR4w4); [1]): -0.0014; DR3 binding information (DRB1*0301 (DR3); [1]): -0.0006
LAILSVSSF	0.0013	0.0500	0.1200	0.0270	0.0370	0.1100	0.1000	0.0130	0.5000	0.0078	-0.0043	0.0930	
VVPGAATPY	0.0026	0.0160	0.0061	-0.0014	0.0036	0.0200	0.1100	0.0053	0.0008	0.0057	-0.0008	0.0017	A*1101 binding information (HLA-A*1101): 0.0002
LYADSAWEN													DR8w2 binding information (DRB1*0802 (DR8w2)): -0.0009; DR7 binding information (DRB1*0701 (DR7)): -0.0014; DR5w11 binding information (DRB1*1101 (DR5w11)): -0.0006; DR1 binding information (DRB1*0101 (DR1); [1]): 0.0002; DR6w19 binding information (DRB1*1302 (DR6w19); [1]): 0.0003; DR2w2β2 binding information (DRB5*0101 (DR2w2β2)): -0.0010; DR2w2β1 binding information (DRB1*1501 (DR2w2β1); [1]): 0.0005; DR3 binding information (DRB1*0301 (DR3); [1]): 0.3500
PDSIQDSLKESRKLN [Peptide 35.0171]													pIC50 (DRB1*0802 (DR8w2)): < 4.70; pIC50 (DRB1*0701 (DR7)): < 4.70; pIC50 (DRB1*1101 (DR5w11)): < 4.70; pIC50 (DRB1*0901 (DR9)): < 4.70; IC50 (DRB1*0101 (DR1); read-out: Binding capacity (IC50 nM) DR1, DR1): > 20000 nM; pIC50 (DRB1*1302 (DR6w19)): < 4.70; pIC50 (DRB1*1501 (DR2w2β1)): 5.64; Alleles bound (DR3) (DRB1*0301 (DR3)): DR3
IQDSLKESR													DR8w2 binding information (DRB1*0802 (DR8w2)): 0.0012; DR7 binding information (DRB1*0701 (DR7)): -0.0014; DR5w11 binding information (DRB1*1101 (DR5w11)): -0.0006; DR1 binding information (DRB1*0101 (DR1); Malaria DR3b motif peptides): -0.0001; DR6w19 binding information (DRB1*1302 (DR6w19); Malaria DR3b motif peptides): -0.0002; DR2w2β2 binding information (DRB5*0101 (DR2w2β2)): -0.0018; DR2w2β1 binding information (DRB1*1501 (DR2w2β1); Malaria DR3b motif peptides): 0.0040; DR3 binding information (DRB1*0301 (DR3); Malaria DR3b motif peptides): 0.8400
VNHAVPLAM	0.200			0.0400		4.000				3.900	0.2300		
LATSVLAGL	0.1300	0.6500	0.0073	0.1200	0.0210	2.6000	1.2000	0.0700	0.0018	3.2000	0.0010	0.0072	
IKNSEKDEI													DR8w2 binding information (DRB1*0802 (DR8w2)): -0.0007; DR7 binding information (DRB1*0701 (DR7)): -0.0011; DR4w15 binding information (DRB1*0405 (DR4w15); Malaria DR3b motif peptides): -0.0010; DR5w11 binding information (DRB1*1101 (DR5w11)): -0.0003; DR1 binding information (DRB1*0101 (DR1); Malaria DR3b motif peptides): 0.0002; DR2w2β2 binding information (DRB5*0101 (DR2w2β2)): -0.0160; DR2w2β1 binding information (DRB1*1501 (DR2w2β1); Malaria DR3b motif peptides): -0.0021; DR4w4 binding information (DRB1*0401 (DR4w4); Malaria DR3b motif peptides): 0.0030; DR3 binding information (DRB1*0301 (DR3); Malaria DR3b motif peptides): -0.0017
IAGGLALLA	0.0004	-0.0003	0.0007	0.0014	-0.0002		0.0160	0.0013		0.0014			A*0301 (binding information) (HLA-A*0301): 0.0002; DRw53 binding data (DRB4*0101 (DRw53)): -0.0005

From patent publication US20160193316A1 (priority 1994, published 2016)
